For test [1], the target named is T1, E. coli-expressed recombinant human IL-13 (human, UniProt P35225 35-146).
T1 construct: Untagged E. coli-expressed human IL-13; also called hIL-13; human IL13 (CA)
As to the kind of experiment: BIAcore analysis 2.

Test [2] addresses T2, E. coli-expressed recombinant human GM-CSF (human, UniProt P04141 18-144). Put plainly: binding ELISA.
Test [3] deals with T3, E. coli-expressed recombinant human IL-4 (human, UniProt P05112 25-153).
T3 sequence (looked up): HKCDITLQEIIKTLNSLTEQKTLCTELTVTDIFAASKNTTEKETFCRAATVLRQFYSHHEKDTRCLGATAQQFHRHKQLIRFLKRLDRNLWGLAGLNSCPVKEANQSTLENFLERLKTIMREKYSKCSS
Put plainly: binding ELISA.

Test [4] concerns the target T4, E. coli-expressed recombinant cynomolgus IL-13 (cynomolgus, UniProt Q5I6E4 21-132 (Macaca thibetana entry)).
T4 chain: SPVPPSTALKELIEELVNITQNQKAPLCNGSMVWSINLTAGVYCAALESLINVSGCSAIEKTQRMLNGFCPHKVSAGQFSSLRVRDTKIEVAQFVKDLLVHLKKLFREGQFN
As to the kind of experiment: cell-based or functional assay.

Test [5] addresses T5, E. coli-expressed recombinant Q130 human IL-13 (human, UniProt P35225 35-146, limits assumed). Put plainly: cell-based or functional assay.
Test [6] addresses T1, E. coli-expressed recombinant human …. As to the kind of experiment: BIAcore, summary of the analyses.
For test [7] the target is unchanged. As to the kind of experiment: BIAcore analysis 4, antibody captured on Protein A, IL-13 in solution. The method, then: (§1) Completed for both human and cynomolgus IL-13 (E. coli-expressed protein). The quoted KD values are the average from 5 different IL-13 concentration curves (done in triplicate).
(§2) The kinetics analysis was performed on a Biacore 3000 machine, using an antibody capture method. Briefly, for the chimeric 6A1 and humanised antibody constructs Protein A capture was used, whilst for the parental murine 6A1 antibody, capture was by a anti-mouse Fc antibody supplied by Biacore. Briefly, the method is as follows, the capture ligand was immobilised to a CM5 Biosensor chip by primary amine coupling in accordance with Biacore standard protocols and using the reagents supplied in Biacores' primary amine coupling kit. The method involves activation CM5 sensor surface by passing a solution of 50 mM N-hydroxy-succinimide (NHS) and 200 mM N-ethyl-N′-dimethylaminopropyl […] (EDC) over the surface. Then, the capture ligand (dissolved in acetate buffer pH5 or pH4.5) was coupled to the activated sensor surface after which any still activated esters were blocked by an injection of 1M ethanolamine hydrochloride, pH8.5.
(§3) The candidate antibody was then passed over the Protein A or anti-mouse Fc antibody surface, depending on whether it was human or mouse in origin and captured. Once a stable binding signal was seen IL13 was passed over the captured antibody surface at various defined concentrations. The subsequent binding curves were analysed with Biacore analysis software BIAeval v4.1 to determine kinetics. The experiments were carried out using Biacore HBS-EP buffer.

In test [8] the target is T4, E. coli-expressed recombinant …. The test is described as above. The method, then: as §1, §2, §3
Test [9] has as its target T6, E. coli-expressed recombinant det-1 tagged human IL-13 (human, UniProt P35225 35-146).
T6 construct: also called Det-1 tagged human IL-13 (made in-house); not shown: det-1 tag
As to the kind of experiment: competition ELISA: inhibition of det-1 tagged human IL-13 binding to human IL-13Rα2-Fc.

Test [10] deals with T2, E. coli-expressed recombinant human …. As to the kind of experiment: sandwich ELISA.
In test [11] the target is mammalian-expressed (CHO cell) human IL-13 (human, UniProt P35225 35-146, limits assumed). Put plainly: cell-based or functional assay.
Test [12] has as its target T1, E. coli-expressed recombinant human …. Put plainly: cell-based or functional assay.
The target in test [13] is T4, E. coli-expressed recombinant …. As to the kind of experiment: cell-based or functional assay.
For test [14], the target named is T5, E. coli-expressed recombinant Q130 …. As to the kind of experiment: cell-based or functional assay. The source holds these as a separate data set.
Test [15] has as its target T6, E. coli-expressed recombinant det-1 …. As to the kind of experiment: BIAcore.
For test [16], the target named is T1, E. coli-expressed recombinant human …. As to the kind of experiment: BIAcore.
In test [17] the target is T4, E. coli-expressed recombinant …. Put plainly: BIAcore.
Test [18] addresses T6, E. coli-expressed recombinant det-1 …. As to the kind of experiment: competition ELISA: inhibition of det-1 tagged human IL-13 binding to human IL-13Rα1-Fc.
Test [19] shares this target. As to the kind of experiment: competition ELISA: inhibition of det-1 tagged human IL-13 binding to human IL-13Rα2-Fc. This is another data set of the same source.

T5 sequence (P35225 35-146 limits assumed): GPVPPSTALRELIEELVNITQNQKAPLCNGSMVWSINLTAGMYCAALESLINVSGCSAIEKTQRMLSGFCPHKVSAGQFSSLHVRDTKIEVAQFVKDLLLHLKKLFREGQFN
T1 sequence (P35225 other isoform, or with tags, fused parts or gaps): as the sequence (P35225 35-146 limits assumed) above, with Q110R counted along it
T6 sequence (P35225 other isoform, or with tags, fused parts or gaps): as the sequence (P35225 35-146 limits assumed) above, with Q110R counted along it
T2 sequence (P04141 18-144 limits assumed): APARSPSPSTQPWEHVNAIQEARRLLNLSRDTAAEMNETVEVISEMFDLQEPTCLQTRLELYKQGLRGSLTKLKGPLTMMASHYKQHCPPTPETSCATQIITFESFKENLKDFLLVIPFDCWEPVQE
Chain of mammalian-expressed (CHO cell) human IL-13 (P35225 other isoform, or with tags, fused parts or gaps limits assumed): as the sequence (P35225 35-146 limits assumed) above, with Q110R counted along it

B1: L1+A1 (antibody, human IgG1, kappa, V domains shown)
VH: QVQLVQSGAEVKKPGSSVKVSCKASGFYIKDTYMHWVRQAPGQGLEWMGTIDPANGNTKYVPKFQGRVTITADESTSTAYMELSSLRSEDTAVYYCARSIYDDYHYDDYYAMDYWGQGTLVTVSS
VL: DIVMTQSPLSLPVTPGEPASISCRSSQNIVHINGNTYLEWYLQKPGQSPRLLIYKISDRFSGVPDRFSGSGSGTDFTLKISRVEADDVGIYYCFQGSHVPWTFGQGTKLEIKR
notes: Humanised 6A1, VH construct A1 and VL construct L1, human gamma1 wild type / kappa constant regions; also called A1L1; humanised anti-IL-13 mAb L1+A1
Take B1: the Kd was 0.149 nM in test [1], ~0.168 nM in test [6], 0.17 nM in [7] and 0.08 nM in test [8]. The koff came out at 6.95e-05 s⁻¹ in test [1], 8.22e-05 s⁻¹ in [6], 0.00014 s⁻¹ in test [7] and 5.86e-05 s⁻¹ in test [8]. The kon is 466000 M⁻¹ s⁻¹ in [1], ~600000 M⁻¹ s⁻¹ in test [6], 824000 M⁻¹ s⁻¹ in test [7] and 730000 M⁻¹ s⁻¹ in test [8]. Moreover, the binding result in test [2] and in test [3] was “no binding (tested: 30 µg/ml)” in each case. The “Mean ND50 for 2 assays” value in [4] came out at 0.078 µg/mL; in [5], 0.438 µg/mL. For the same molecule, the IC50 in test [9] was 0.113 µg/mL.

B2: monoclonal antibody 6A1 (antibody, IgG1, V domains shown)
VH: EIQLQQSVAELVRPGASVRLSCTASGFYIKDTYMHWVIQRPEQGLEWIGTIDPANGNTKYVPKFQGKATITADTSSNTAYLRLSSLTSEDTAIYYCARSIYDDYHYDDYYAMDYWGQGTSVTVSS
VL: DVLMTQTPLSLPVSLGDQASISCRSSQNIVHINGNTYLEWYLQKPGQSPKLLIYKISDRFSGVPDRFSGSGSGTDFTLKISRVEAEDLGVYYCFQGSHVPWTFGGGTKLEIK
notes: also called 6A1 parental mAb; parental mouse mAb 6A1
As for B2, the binding result in [10] is on record as “no binding”. The “ND50, TF-1 cell proliferation bioassay” value worked out at 0.037 µg/mL in test [11], 0.0783 µg/mL in [12], 0.04 µg/mL in test [13] and 0.11 µg/mL in test [14]. Besides, the Kd came to 0.032 nM in test [15], 0.27 nM in test [16] and 0.0612 nM in test [17]. The koff in [15] amounted to 7.2e-05 s⁻¹; in test [16] it was 0.000184 s⁻¹; in [17], 5.6e-05 s⁻¹. Further, the kon in test [15] was 2.25e+06 M⁻¹ s⁻¹; in [16] it was 682000 M⁻¹ s⁻¹; in test [17], 914000 M⁻¹ s⁻¹. The “Mean ND50 for 2 assays” value in [4] was 0.078 µg/mL; in test [5], 0.213 µg/mL. In addition, the IC50 in [18] stood at 0.165 µg/mL; in [19] it was 0.056 µg/mL; in [9], 0.02 µg/mL.
